From patent US20260217833A1 (APTEVO RESEARCH AND DEVELOPMENT, published 2026)
Each block holds one binder with its values, some of them ahead of it.

Target: T1, Human PD-L1 full-length (human, UniProt Q9NZQ7 19-290)
T1 construct: also called PDL01021; CHOK1SV/huPDL1
Assay: flow cytometry, CHOK1SV/human PD-L1 cells

T1 sequence (Q9NZQ7 19-290): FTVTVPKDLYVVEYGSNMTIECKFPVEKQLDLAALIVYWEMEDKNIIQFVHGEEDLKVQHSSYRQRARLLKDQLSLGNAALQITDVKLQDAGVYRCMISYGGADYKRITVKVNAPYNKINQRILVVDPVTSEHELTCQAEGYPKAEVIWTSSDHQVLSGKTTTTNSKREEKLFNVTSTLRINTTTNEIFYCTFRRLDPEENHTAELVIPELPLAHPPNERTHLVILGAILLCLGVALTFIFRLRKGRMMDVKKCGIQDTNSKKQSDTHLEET

binding result: binds
B1: CD4001049 (bispecific antibody)
scFv-Fc-scFv chain: DIVMSQSPSSLAVSVGEKVTMSCKSSQSLLFSVNQKNYLAWYQQKPGQSPKLLIYWASTRESGVPDRFTGSGSGTDFTLTIGSVKAEDLAVYYCQHYYSYPWTFGGGTKLEIKGGGGSGGGGSGGGGSGGGGSQVQLQQSGAELMNPGASVRISCKATGYTFSTSWIEWIKQRPGHGLEWIGEILPGSGSTNYNEKFKGKATFTADTSSNTAYMQLSSLTFEDSAVYYCARGDDGSYVRWYFDVWGAGTTVTVSSEPKSSDKTHTCPPCPAPPAAAPSVFLFPPKPKDTLMISRTPEVTCVVVDVSHEDPEVKFNWYVDGVEVHNAKTKPREEQYNSTYRVVSVLTVLHQDWLNGKEYKCAVSNKALPAPIEKTISKAKGQPREPQVYTLPPSRDELTKNQVSLTCLVKGFYPSDIAVEWESNGQPENNYKTTPPVLDSDGSFFLYSKLTVDKSRWQQGNVFSCSVMHEALHNHYTQKSLSLSPGGGGSPSEVQLVESGGGLVKPGGSLRLSCAASGFTFSDYGMAWVRQAPGKGLEWVAFITSLAYIIYYADSVKGRFTISRDNAKNSLYLQMNSLRAEDTAVYYCARNYGSSPYYFDYWGQGTLVTVSSGGGGSGGGGSGGGGSGGGGSDIQMTQSPSSLSASVGDRVTITCRASQDINKFLSWYQQKPGKAPKLLIHYTSSLQPGVPSRFSGSGSGTDFTLTISSLQPEDFATYYCLQYDNLYTFGQGTKLEIK
notes: also called CD40_1D5 x hFc x PDL_5F9

binding result: binds
B2: CD4001073 (bispecific antibody)
CD40_2H7 x Fc-Knob: DIVMTQSHKFMSTSVGDRVSITCKASQDVNTAVAWYQQKPGQSPKLLIYSASYRYTGVPDRFTGSGSGTDFTFTISSVQAEDLAVYYCQQHYSTPWTFGGGTKLEIKGGGGSGGGGSGGGGSGGGGSQVQLQQSGAELAKPGASVKMSCKASGYAFTTYWMHWVKQRPGQGLEWIGYINPTTGYTDYNQKFKDKATLTADKSSSTAYMQLSSLTSEDSAVYYCARWGLPPFAYWGQGTLVTVSAEPKSSDKTHTCPPCPAPPAAAPSVFLFPPKPKDTLMISRTPEVTCVVVDVSHEDPEVKFNWYVDGVEVHNAKTKPREEQYNSTYRVVSVLTVLHQDWLNGKEYKCAVSNKALPAPIEKTISKAKGQPREPQVYTLPPSRDELTKNQVSLWCLVKGFYPSDIAVEWESNGQPENNYKTTPPVLDSDGSFFLYSKLTVDKSRWQQGNVFSCSVMHEALHNHYTQKSLSLSPG
CD40_2H7 x Fc-Hole x PDL_5F9: DIVMTQSHKFMSTSVGDRVSITCKASQDVNTAVAWYQQKPGQSPKLLIYSASYRYTGVPDRFTGSGSGTDFTFTISSVQAEDLAVYYCQQHYSTPWTFGGGTKLEIKGGGGSGGGGSGGGGSGGGGSQVQLQQSGAELAKPGASVKMSCKASGYAFTTYWMHWVKQRPGQGLEWIGYINPTTGYTDYNQKFKDKATLTADKSSSTAYMQLSSLTSEDSAVYYCARWGLPPFAYWGQGTLVTVSAEPKSSDKTHTCPPCPAPPAAAPSVFLFPPKPKDTLMISRTPEVTCVVVDVSHEDPEVKFNWYVDGVEVHNAKTKPREEQYNSTYRVVSVLTVLHQDWLNGKEYKCAVSNKALPAPIEKTISKAKGQPREPQVYTLPPSRDELTKNQVSLSCAVKGFYPSDIAVEWESNGQPENNYKTTPPVLDSDGSFFLVSKLTVDKSRWQQGNVFSCSVMHEALHNRFTQKSLSLSPGGGGSPSEVQLVESGGGLVKPGGSLRLSCAASGFTFSDYGMAWVRQAPGKGLEWVAFITSLAYIIYYADSVKGRFTISRDNAKNSLYLQMNSLRAEDTAVYYCARNYGSSPYYFDYWGQGTLVTVSSGGGGSGGGGSGGGGSGGGGSDIQMTQSPSSLSASVGDRVTITCRASQDINKFLSWYQQKPGKAPKLLIHYTSSLQPGVPSRFSGSGSGTDFTLTISSLQPEDFATYYCLQYDNLYTFGQGTKLEIK
